Laboratory results published in article PMC5087089.

How the values were obtained:
[1] = target: wildtype (WT) HA trimer from A/New Caledonia/20/1999 (H1 1999 NC), soluble trimeric format (influenza A virus A/New Caledonia/20/1999 (H1 1999 NC)) (UniProt Q6WG00); assay: SEC; size exclusion on a Sepharose 10/300 column
[2] = target: Y98F HA trimer from A/New Caledonia/20/1999 (H1 1999 NC), soluble trimeric format (influenza A virus A/New Caledonia/20/1999 (H1 1999 NC)); assay: SEC; size exclusion on a Sepharose 10/300 column

Row | Substance | stoichiometry N [1] | stoichiometry N [2]
1 | wildtype (WT) HA trimer from A/New Caledonia/20/1999 (H1 1999 NC), soluble trimeric format (from UniProt Q6WG00 1-565) (natural protein) | 3 | –
2 | Y98F HA trimer from A/New Caledonia/20/1999 (H1 1999 NC), soluble trimeric format (natural protein) | – | 3
